Data on two molecules can be found in US20240218052A1.

This test has as its target SARS CoV-2 parental (Wuhan-Hu-1) receptor binding domain (RBD) protein, amino acids 319 to 541 of th (SARS-CoV-2, Wuhan-Hu-1 isolate), P0DTC2. As to the kind of experiment: ELISA, antigen coated, chimeric IgG1 titrated, anti-human Fc-HRP. Conditions: remark: other sources report otherwise.

B1: SKD chimeric bovine-human IgG1 (ultralong CDR3) (antibody)
VH: QVQLRESGPSLVKPSQTLSLTCTASGFSLSDKAVGWVRQAPGKALEWLGSIDTGGNTGYNPGLKSRLSITKDNSKSQVSLSVSSVTTEDSATYYCTTVHQRTSEKRSCPGGSSRRYPSGASCDVSGGACACYVSNCRGVLCPTLNEIVAYTYEWHVDAWGQGLLVTVSS
VL: QAVLNQPSSVSGSLGQRVSITCSGSSSNVGNGYVSWYQLIPGSAPRTLIYGDTSRASGVPDRFSGSRSGNTATLTISSLQAEDEADYFCASAEDSSSNAVFGSGTTLTVL
Broadly, the EC50 is the concentration needed to bring the measured effect to its halfway point. For B1, the concentration for a half-maximal effect (EC50) is 0.19 nM.

B2: SKM chimeric bovine-human IgG1 (ultralong CDR3) (antibody)
VH: QVQLRESGPSLVKPSQTLSLTCTASGFSLSDKAVGWVRQAPGKALEWLGSIDTGGNTGYNPGLKSRLSITKDNSKSQVSLSVSSVTTEDSATYYCTTVHQETLRSCPDGYIDNSGCTADWGCAALDCWRRRFGYHSTDPSHYTGATYIYTYSLHIDAWGQGLLVTVSS
VL: QAVLNQPSSVSGSLGQRVSITCSGSSSNVGNGYVSWYQLIPGSAPRTLIYGDTSRASGVPDRFSGSRSGNTATLTISSLQAEDEADYFCASAEDSSSNAVFGSGTTLTVL
Take B2: the EC50 was found to be 0.24 nM.
